We go through 3 substances from PMC6219635.

What is called stoichiometry N is a count of units in the complex or per binding partner.

Assay in all cases: SDS-PAGE under non-reducing conditions
Assay [1] addresses FG-IncD M (FLAG-tagged TM region of IncD) (Chlamydia trachomatis).
Assay [2] has as its target FG-IncD ΔC (aa 1-91) (Chlamydia trachomatis).
In assay [3] the target is FG-IncD ΔN (38-146) (Chlamydia trachomatis).

Take “FG-IncD M (FLAG-tagged TM region of IncD) (domain or fragment)”: in assay [1], the stoichiometry N was 2.

Turning to “FG-IncD ΔC (aa 1-91) (domain or fragment)”, the stoichiometry N in assay [2] turned out to be 2.

“FG-IncD ΔN (38-146) (domain or fragment)” yielded a stoichiometry N in assay [3] of 2.
